Experimental findings from US20090269346A1 are described below.

The target of assay [1] is LRP2 CR89 (human) (UniProt P98164). The experiment in a line: phage binding: equal amounts of phage incubated in wells coated with LRP2 CR89, bound phage eluted and titered; in the presence of 50 mM EDTA.
Assay [2] shares this target. The experiment in a line: phage binding: equal amounts of phage incubated in wells coated with LRP2 CR89, bound phage eluted and titered; no EDTA.

Sequence of LRP2 CR89 (human) (P98164 1025-1102): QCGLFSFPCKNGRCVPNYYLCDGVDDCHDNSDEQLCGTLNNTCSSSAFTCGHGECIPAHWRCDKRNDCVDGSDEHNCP

B1: RAP phage (protein, not shown: large carriers)
chain: YSREKNQPKPSPKRESGEEFRMEKLNQLWEKAQRLHLPPVRLAELHADLKIQERDELAWKKLKLDGLDEDGEKEARLIRNLNVILAKYGLDGKKDARQVTSNSLSGTQEDGLDDPRLEKLWHKAKTSGKFSGEELDKLWREFLHHKEKVHEYNVLLETLSRTEEIHENVISPSDLSDIKGSVLHSRHTELKEKLRSINQGLDRLRRVSHQGYSTEAEFEEPRVIDLWDLAQSANLTDKELEAFREELKHFEAKIEKHNHYQKQLEIAHEKLRHAESVGDGERVSRSREKHALLEGRTKELGYTVKKHLQDLSGRISRARAEAETG
modifications: Displayed on M13 phage as an N-terminal fusion to pIII; pIII letters not given.
As to B1, the cfu recovered in assay [1] was 146 cfu; in assay [2], 520 cfu.
